Source: the supplement of paper PMC9112550, “Optimization of the antimicrobial peptide Bac7 by deep mutational scanning” (BMC Biology, 2022)

System: Escherichia coli TOP10
Experiment: shrunken log2 fold change of peptide-encoding DNA abundance (4.5 h post-induction vs induction); higher = less antimicrobial activity (less host growth inhibition)
Conditions: time post-induction: 4.5 h; library: site-saturation at positions 5, 18, 19, 20
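Also: peptides expressed intracellularly from a pBAD plasmid library in pooled LB shake-flask culture, induced with 0.3% L-arabinose, DNA abundance read by NGS, three biological replicates, DESeq2 with apeglm shrinkage.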

In order of rising “shrunken log2 fold change” value:
1. RRIRDRPPRLPRPRPRPFNKPRP  -1.45
2. RRIRCRPPRLPRPRPRPYWAPRP  -1.21
3. RRIRCRPPRLPRPRPRPYKVPRP  -1.05
4. RRIRCRPPRLPRPRPRPYHTPRP  -0.887
5. RRIRCRPPRLPRPRPRPYHRPRP  -0.77
6. RRIRDRPPRLPRPRPRPDHPPRP  -0.76
7. RRIRDRPPRLPRPRPRPFYMPRP  -0.735
8. RRIRCRPPRLPRPRPRPYVKPRP  -0.647
9. RRIRCRPPRLPRPRPRPYSIPRP  -0.608
10. RRIRDRPPRLPRPRPRPHIQPRP  -0.53
11. RRIRCRPPRLPRPRPRPYGSPRP  -0.517
12. RRIRDRPPRLPRPRPRPGTIPRP  -0.485
13. RRIRCRPPRLPRPRPRPYPNPRP  -0.459
14. RRIRCRPPRLPRPRPRPYMSPRP  -0.366
15. RRIRDRPPRLPRPRPRPFKAPRP  -0.334
16. RRIRDRPPRLPRPRPRPCPDPRP  -0.312
17. RRIRDRPPRLPRPRPRPHKNPRP  -0.296
18. RRIRCRPPRLPRPRPRPYHCPRP  -0.271
19. RRIRDRPPRLPRPRPRPDYRPRP  -0.241
20. RRIRDRPPRLPRPRPRPFVRPRP  -0.234
21. RRIRDRPPRLPRPRPRPDNWPRP  -0.232
22. RRIRDRPPRLPRPRPRPDNGPRP  -0.223
23. RRIRCRPPRLPRPRPRPYTVPRP  -0.207
24. RRIRDRPPRLPRPRPRPFLVPRP  -0.199
25. RRIRCRPPRLPRPRPRPYNCPRP  -0.195
26. RRIRDRPPRLPRPRPRPGNMPRP  -0.164
27. RRIRDRPPRLPRPRPRPDNPPRP  -0.159
28. RRIRDRPPRLPRPRPRPCRRPRP  -0.155
29. RRIRDRPPRLPRPRPRPCYCPRP  -0.148
30. RRIRDRPPRLPRPRPRPFMEPRP  -0.148
31. RRIRDRPPRLPRPRPRPFIMPRP  -0.147
32. RRIRDRPPRLPRPRPRPCNGPRP  -0.143
33. RRIRCRPPRLPRPRPRPYGGPRP  -0.136
34. RRIRDRPPRLPRPRPRPFFKPRP  -0.127
35. RRIRDRPPRLPRPRPRPFITPRP  -0.118
36. RRIRDRPPRLPRPRPRPHDQPRP  -0.0965
37. RRIRDRPPRLPRPRPRPFHKPRP  -0.0864
38. RRIRDRPPRLPRPRPRPFKMPRP  -0.0853
39. RRIRCRPPRLPRPRPRPYGMPRP  -0.0815
40. RRIRDRPPRLPRPRPRPASKPRP  -0.0758
41. RRIRDRPPRLPRPRPRPFGPPRP  -0.0754
42. RRIRDRPPRLPRPRPRPHDCPRP  -0.0662
43. RRIRDRPPRLPRPRPRPCIVPRP  -0.0549
44. RRIRDRPPRLPRPRPRPHKTPRP  -0.0521
45. RRIRDRPPRLPRPRPRPDYVPRP  -0.0518
46. RRIRDRPPRLPRPRPRPHCEPRP  -0.0477
47. RRIRDRPPRLPRPRPRPADKPRP  -0.0463
48. RRIRDRPPRLPRPRPRPFGMPRP  -0.0413
49. RRIRDRPPRLPRPRPRPDRIPRP  -0.0411
50. RRIRDRPPRLPRPRPRPEIPPRP  -0.0405
51. RRIRDRPPRLPRPRPRPAVTPRP  -0.0403
52. RRIRDRPPRLPRPRPRPCKIPRP  -0.0385
53. RRIRDRPPRLPRPRPRPANRPRP  -0.0377
54. RRIRDRPPRLPRPRPRPDFGPRP  -0.0319
55. RRIRDRPPRLPRPRPRPCNLPRP  -0.0295
56. RRIRDRPPRLPRPRPRPGHGPRP  -0.0236
57. RRIRDRPPRLPRPRPRPCPNPRP  -0.02
58. RRIRDRPPRLPRPRPRPEYIPRP  -0.0149
59. RRIRDRPPRLPRPRPRPFAVPRP  -0.0136
60. RRIRDRPPRLPRPRPRPCHEPRP  -0.0135
61. RRIRDRPPRLPRPRPRPCRSPRP  -0.0116
62. RRIRDRPPRLPRPRPRPCTYPRP  -0.0116
63. RRIRDRPPRLPRPRPRPGQQPRP  -0.0114
64. RRIRDRPPRLPRPRPRPDGDPRP  -0.0107
65. RRIRDRPPRLPRPRPRPEQIPRP  -0.0105
66. RRIRDRPPRLPRPRPRPEECPRP  -0.00963
67. RRIRDRPPRLPRPRPRPFCQPRP  -0.00439
68. RRIRDRPPRLPRPRPRPFKWPRP  -0.0034
69. RRIRDRPPRLPRPRPRPDLCPRP  -0.0018
70. RRIRDRPPRLPRPRPRPDNCPRP  -0.000924
71. RRIRDRPPRLPRPRPRPEKCPRP  -0.000921
72. RRIRDRPPRLPRPRPRPESDPRP  0.000356
73. RRIRDRPPRLPRPRPRPAFLPRP  0.000425
74. RRIRDRPPRLPRPRPRPHHAPRP  0.00408
75. RRIRDRPPRLPRPRPRPDQYPRP  0.00642
76. RRIRDRPPRLPRPRPRPGWEPRP  0.00884
77. RRIRDRPPRLPRPRPRPEVGPRP  0.00896
78. RRIRDRPPRLPRPRPRPAGFPRP  0.0112
79. RRIRDRPPRLPRPRPRPECPPRP  0.0118
80. RRIRDRPPRLPRPRPRPHGPPRP  0.0119
81. RRIRDRPPRLPRPRPRPHFLPRP  0.0122
82. RRIRDRPPRLPRPRPRPADRPRP  0.0125
83. RRIRDRPPRLPRPRPRPDYSPRP  0.0125
84. RRIRDRPPRLPRPRPRPEQVPRP  0.015
85. RRIRDRPPRLPRPRPRPFDVPRP  0.016
86. RRIRDRPPRLPRPRPRPDWEPRP  0.0165
87. RRIRDRPPRLPRPRPRPDADPRP  0.0193
88. RRIRDRPPRLPRPRPRPEAVPRP  0.0262
89. RRIRDRPPRLPRPRPRPFYRPRP  0.03
90. RRIRDRPPRLPRPRPRPDHTPRP  0.0303
91. RRIRDRPPRLPRPRPRPCYKPRP  0.0316
92. RRIRDRPPRLPRPRPRPGVKPRP  0.0336
93. RRIRDRPPRLPRPRPRPDFSPRP  0.0345
94. RRIRDRPPRLPRPRPRPHILPRP  0.0348
95. RRIRDRPPRLPRPRPRPCDFPRP  0.0384
96. RRIRDRPPRLPRPRPRPDQQPRP  0.0408
97. RRIRDRPPRLPRPRPRPFNCPRP  0.0412
98. RRIRDRPPRLPRPRPRPCGPPRP  0.0478
99. RRIRDRPPRLPRPRPRPEITPRP  0.0482
100. RRIRDRPPRLPRPRPRPFMRPRP  0.05
101. RRIRDRPPRLPRPRPRPGRLPRP  0.0513
102. RRIRDRPPRLPRPRPRPEHPPRP  0.054
103. RRIRDRPPRLPRPRPRPDISPRP  0.0588
104. RRIRDRPPRLPRPRPRPETKPRP  0.0655
105. RRIRDRPPRLPRPRPRPCIAPRP  0.0755
106. RRIRDRPPRLPRPRPRPENLPRP  0.0863
107. RRIRDRPPRLPRPRPRPAHYPRP  0.0963
108. RRIRDRPPRLPRPRPRPDQLPRP  0.0963
109. RRIRDRPPRLPRPRPRPEQLPRP  0.104
110. RRIRDRPPRLPRPRPRPAHHPRP  0.113
111. RRIRDRPPRLPRPRPRPGNAPRP  0.126
112. RRIRDRPPRLPRPRPRPHAPPRP  0.144
113. RRIRDRPPRLPRPRPRPDWSPRP  0.147
114. RRIRDRPPRLPRPRPRPAVHPRP  0.16
115. RRIRDRPPRLPRPRPRPHFEPRP  0.163
116. RRIRDRPPRLPRPRPRPASRPRP  0.17
117. RRIRDRPPRLPRPRPRPAWCPRP  0.183
118. RRIRDRPPRLPRPRPRPAMQPRP  0.194
119. RRIRDRPPRLPRPRPRPGMDPRP  0.216
120. RRIRDRPPRLPRPRPRPGWVPRP  0.223
121. RRIRDRPPRLPRPRPRPHFCPRP  0.23
122. RRIRDRPPRLPRPRPRPDGCPRP  0.252
123. RRIRDRPPRLPRPRPRPGFQPRP  0.252
124. RRIRDRPPRLPRPRPRPFCGPRP  0.258
125. RRIRDRPPRLPRPRPRPAGHPRP  0.261
126. RRIRDRPPRLPRPRPRPGPWPRP  0.287
127. RRIRDRPPRLPRPRPRPFDIPRP  0.289
128. RRIRDRPPRLPRPRPRPCGCPRP  0.317
129. RRIRDRPPRLPRPRPRPALPPRP  0.328
130. RRIRDRPPRLPRPRPRPAPMPRP  0.445
131. RRIRDRPPRLPRPRPRPCGEPRP  0.488
132. RRIRDRPPRLPRPRPRPGFWPRP  0.493
133. RRIRDRPPRLPRPRPRPFLWPRP  0.625
134. RRIRDRPPRLPRPRPRPEYQPRP  0.637
135. RRIRDRPPRLPRPRPRPEAGPRP  0.67
136. RRIRDRPPRLPRPRPRPEMTPRP  0.679
137. RRIRDRPPRLPRPRPRPGCTPRP  0.727
138. RRIRDRPPRLPRPRPRPATWPRP  0.754
139. RRIRDRPPRLPRPRPRPDLAPRP  0.814
140. RRIRDRPPRLPRPRPRPGSWPRP  0.817
141. RRIRDRPPRLPRPRPRPDLGPRP  0.829
142. RRIRDRPPRLPRPRPRPDAIPRP  0.903
143. RRIRDRPPRLPRPRPRPAFEPRP  0.906
144. RRIRDRPPRLPRPRPRPEEHPRP  0.937
145. RRIRDRPPRLPRPRPRPGCAPRP  0.968
146. RRIRDRPPRLPRPRPRPEPRPRP  1
147. RRIRDRPPRLPRPRPRPAGGPRP  1.11
148. RRIRDRPPRLPRPRPRPGVDPRP  1.36
149. RRIRDRPPRLPRPRPRPDLQPRP  1.54
150. RRIRDRPPRLPRPRPRPEADPRP  1.93
